Experimental data: patent US20100196361A1, “Method of inhibition of vascular development using an antibody” (DYAX CORP., priority 2003, published 2010)

T1: human Tie1 Fc (Homo sapiens, UniProt P35590)
T1 construct: selected against the Tie1 extracellular domain fused to human Fc or to a histidine purification tag
T1 sequence (P35590 22-759 limits assumed): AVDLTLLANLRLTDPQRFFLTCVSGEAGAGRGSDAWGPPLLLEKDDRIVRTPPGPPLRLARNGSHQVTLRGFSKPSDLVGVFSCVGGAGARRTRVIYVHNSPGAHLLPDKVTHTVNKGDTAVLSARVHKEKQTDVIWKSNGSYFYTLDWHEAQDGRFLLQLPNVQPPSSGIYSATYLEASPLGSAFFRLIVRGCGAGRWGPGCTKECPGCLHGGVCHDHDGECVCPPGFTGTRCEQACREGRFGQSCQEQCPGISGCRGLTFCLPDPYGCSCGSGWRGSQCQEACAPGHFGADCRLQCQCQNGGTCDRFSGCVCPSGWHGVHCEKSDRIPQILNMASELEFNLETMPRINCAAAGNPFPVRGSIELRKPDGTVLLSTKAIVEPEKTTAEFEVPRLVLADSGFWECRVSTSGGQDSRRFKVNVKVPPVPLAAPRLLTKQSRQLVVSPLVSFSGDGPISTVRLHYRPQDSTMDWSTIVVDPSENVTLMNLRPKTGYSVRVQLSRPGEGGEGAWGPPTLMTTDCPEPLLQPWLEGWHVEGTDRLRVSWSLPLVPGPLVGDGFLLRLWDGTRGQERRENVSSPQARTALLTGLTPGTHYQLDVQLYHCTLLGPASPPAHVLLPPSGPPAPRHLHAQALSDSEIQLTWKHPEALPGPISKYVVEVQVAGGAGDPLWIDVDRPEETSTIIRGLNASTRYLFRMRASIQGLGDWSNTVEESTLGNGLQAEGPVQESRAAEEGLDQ

T2: mouse Tie1 Fc (Mus musculus, UniProt Q06806)
T2 construct: both dimeric (Tie1-Fc fusion protein) and monomeric (Tie1-HIS) versions of the extracellular domain of the Tie1 were used
T2 sequence (Q06806 23-755 limits assumed): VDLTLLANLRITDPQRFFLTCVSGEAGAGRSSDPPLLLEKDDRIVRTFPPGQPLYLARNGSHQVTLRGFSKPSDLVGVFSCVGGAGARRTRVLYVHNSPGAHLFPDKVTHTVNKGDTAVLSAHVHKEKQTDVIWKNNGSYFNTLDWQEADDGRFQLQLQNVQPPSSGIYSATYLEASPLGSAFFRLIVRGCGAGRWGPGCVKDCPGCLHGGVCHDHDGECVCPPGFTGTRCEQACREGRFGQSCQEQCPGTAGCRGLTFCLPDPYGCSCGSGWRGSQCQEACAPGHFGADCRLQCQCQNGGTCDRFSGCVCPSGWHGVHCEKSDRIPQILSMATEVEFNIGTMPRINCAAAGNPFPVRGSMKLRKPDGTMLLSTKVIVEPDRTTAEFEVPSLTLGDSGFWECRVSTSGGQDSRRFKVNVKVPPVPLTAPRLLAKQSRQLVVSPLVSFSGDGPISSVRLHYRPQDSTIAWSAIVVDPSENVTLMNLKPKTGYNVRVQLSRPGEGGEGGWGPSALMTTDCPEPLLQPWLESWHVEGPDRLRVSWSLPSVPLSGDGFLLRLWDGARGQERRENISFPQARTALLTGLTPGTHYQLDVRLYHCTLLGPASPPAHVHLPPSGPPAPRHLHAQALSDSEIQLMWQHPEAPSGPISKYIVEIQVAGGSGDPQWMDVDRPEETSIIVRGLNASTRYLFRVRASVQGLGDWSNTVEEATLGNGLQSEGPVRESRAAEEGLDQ

B1: E3: human anti-Tie1 antibody from phage Fab library, reformatted as IgG; HC variable SEQ ID NO:114, LC variable SEQ ID NO:116 (antibody, V domains shown)
VH: EVQLLESGGGLVQPGGSLRLSCAASGFTFSMYGMVWVRQAPGKGLEWVSVISPSGGNTGYADSVKGRFTISRDNSKNTLYLQVNSLRAEDTAVYYCARAPRGYSYGYYYWGQGTLVTVSSASTKGPSVFPLAPSSKSTSGG
VL: DIQMTQSPLSLSASVGDRVTITCRASQGIGHYLAWYQQKPGKVPKLLIYTASTLQSGVPSRFSGSGSGTDFTLTINSLQPEDVATYYCQQFNSYPHTFGQGTRLDIK
modifications: IgG constant regions; Synthetically generated peptide
B2: germlined E3 Fab: soluble Fab of E3 with LC framework regions germlined to DPK4; LC variable SEQ ID NO:159 (antibody, V domains shown)
VH: EVQLLESGGGLVQPGGSLRLSCAASGFTFSMYGMVWVRQAPGKGLEWVSVISPSGGNTGYADSVKGRFTISRDNSKNTLYLQVNSLRAEDTAVYYCARAPRGYSYGYYYWGQGTLVTVSSASTKGPSVFPLAPSSKSTSGG
VL: DIQMTQSPSSLSASVGDRVTITCRASQGIGHYLAWYQQKPGKVPKLLIYTASTLQSGVPSRFSGSGSGTDFTLTISSLQPEDVATYYCQQFNSYPHTFGQGTRLEIK
B3: DX-2210: E3 antibody in which the light chain has been germlined (antibody, V domains shown)
VH: EVQLLESGGGLVQPGGSLRLSCAASGFTFSMYGMVWVRQAPGKGLEWVSVISPSGGNTGYADSVKGRFTISRDNSKNTLYLQVNSLRAEDTAVYYCARAPRGYSYGYYYWGQGTLVTVSSASTKGPSVFPLAPSSKSTSGG
VL: DIQMTQSPSSLSASVGDRVTITCRASQGIGHYLAWYQQKPGKVPKLLIYTASTLQSGVPSRFSGSGSGTDFTLTISSLQPEDVATYYCQQFNSYPHTFGQGTRLEIK
B4: parental E3 Fab: soluble Fab fragment of the parental E3 anti-Tie1 antibody (antibody, V domains shown)
VH: EVQLLESGGGLVQPGGSLRLSCAASGFTFSMYGMVWVRQAPGKGLEWVSVISPSGGNTGYADSVKGRFTISRDNSKNTLYLQVNSLRAEDTAVYYCARAPRGYSYGYYYWGQGTLVTVSSASTKGPSVFPLAPSSKSTSGG
VL: DIQMTQSPLSLSASVGDRVTITCRASQGIGHYLAWYQQKPGKVPKLLIYTASTLQSGVPSRFSGSGSGTDFTLTINSLQPEDVATYYCQQFNSYPHTFGQGTRLDIK

Legend:
human Tie1 Fc = molecular target: T1, human Tie1 Fc; assay: BIAcore, Tie1 Fc over IgG coated on CM5 chip; format: binding; settings: IgG immobilised; Human Tie1 Fc analyte
Protocol: The germlined E3 IgG1 stock solution 0.63 mg/ml was diluted 1/50 in a buffer of pH4.5 and the parental E3 IgG1 stock solution 0.56 mg/ml (2143-001) was diluted 1/50 in a buffer of pH 4.5. The IgG were directly coated onto a CM5 chip. The surface of the chips was activated with a 7 minute pulse of 0.05M NHS/0.2M EDC and the IgG was flowed over until 780RU germlined E3-IgG and 728 non germlined E3 IgG was coated onto the surface. All flow cells were subsequently deactivated with a 7 minute pulse of 1M ethanolamine hydrochloride pH 8.5. All analysis was performed in HBS buffer. Purified recombinant human Tie1 Fc was diluted 1/28.7 in HBS to obtain a 400 nM stock solution. Serial dilutions were made to obtain 200 nM, 100 nM, 50 nM and 25 nM Tie1 Fc stocks. For analysis of the association phase samples were injected at 30 μl/min for 8.3 minutes using kinject program. This was followed by a 40 minutes dissociation phase. Any antigen remaining associated to the surface was stripped from the IgG surface at a flow of 50 μl/min with two injections of 10 mM glycine pH 1.5 for 30 seconds. All samples were run and analyzed in duplicate
(§1) Sensorgrams were analyzed using the simultaneous ka/kd fitting program with 1:1 model in the BIAEVALUATION™ software 3.1.

mouse Tie1 Fc = molecular target: T2, mouse Tie1 Fc; assay: BIAcore, Fab over biotinylated mouse Tie1-Fc on streptavidin chip; format: binding; settings: Fab analyte; for kon: 740 RU
Protocol: Mouse Tie 1-Fc antigen (0.5 mg/ml stock) was biotinylated using established procedures and after dilution 1/100 fold in HBS this was then used for capturing to a streptavidin chip. This was coated to a resonance value of 740RU. All analysis was performed in HBS buffer. The parental Fab E3 0.587 mg/ml (11740 nM) was diluted 1/587 in HBS+BSA to obtain a stock of 20 nM and the germlined Fab E3 0.025 mg/ml (500 nM) was diluted 1/25 in HBS+BSA to obtain a stock of 20 nM. Serial dilutions were made of each Fab preparation to obtain 10 nM, 5 nM, 2.5 nM, and 1.25 nM. For the association phase samples were injected at 30 μl/min for 4 minutes using kinject program. This was followed by a 10 minutes dissociation phase, any remaining sample was stripped from the Tie1 Fc surface at a flow of 50 μl/min with a single injection of 50 mM NaOH+1 M NaCl for 18 seconds. All samples were run and analyzed in duplicate.
as §1

Row | Molecule | koff (human Tie1 Fc) | kon (human Tie1 Fc) | koff (mouse Tie1 Fc) | kon (mouse Tie1 Fc)
1 | B1 | 3.61e-05 s⁻¹ | 6190 M⁻¹ s⁻¹ | – | –
2 | B2 | – | – | 0.00104 s⁻¹ | 340000 M⁻¹ s⁻¹
3 | B3 | 3.67e-05 s⁻¹ | 7090 M⁻¹ s⁻¹ | – | –
4 | B4 | – | – | 0.00095 s⁻¹ | 246000 M⁻¹ s⁻¹
